# Test results taken from publication PMC4230322.
# Substrate: CC/C(=C(\c1ccc(O)cc1)c1ccc(OCCN(C)C)cc1)c1ccccc1
# Test: Initial rate kinetics of TAM sulfation
# Format: biochemical, human
# Details: other: TAM as substrate, pH 7.2, 25.0 °C
protein,measurement,setting,value
SULT1A1 (Homo sapiens) (protein) MELIQDTSRPPLEYVKGVPLIKYFAEALGPLQSFQARPDDLLISTYPKSGTTWVSQILDMIYQGGDLEKCHRAPIFMRVPFLEFKAPGIPSGMETLKDTPAPRLLKTHLPLALLPQTLLDQKVKVVYVARNAKDVAVSYYHFYHMAKVHPEPGTWDSFLEKFMVGEVSYGSWYQHVQEWWELSRTHPVLYLFYEDMKENPKREIQKILEFVGRSLPEETVDFVVQHTSFKEMKKNPMTNYTTVPQEFMDHSISPFMRKGMAGDWKTTFTVAQNERFDADYAEKMAGCSLSFRSEL,kcat,"E·(PAP)2 form, [PAPS] 250 μM",11 s⁻¹
same,Km,"E·PAP form, [PAPS] 4.0 μM",14 (1.0) μM
same,kcat,"E·PAP form, [PAPS] 4.0 μM",2 s⁻¹
